Laboratory results taken from US20210315933A1 (TCR2 THERAPEUTICS, published 2021).
Where two headings read alike, the source gives them in different places.

T1: recombinant human IL13Rα2 fused to an Fc domain of human IgG1 (hIL13Rα2-Fc) (human, UniProt Q14627 27-343, limits assumed)
T1 construct: Bought construct (R&D Systems); The Fc can be removed by Factor Xa, so a Factor Xa site lies between the parts; not shown: Fc domain of human IgG1
T1 sequence (looked up): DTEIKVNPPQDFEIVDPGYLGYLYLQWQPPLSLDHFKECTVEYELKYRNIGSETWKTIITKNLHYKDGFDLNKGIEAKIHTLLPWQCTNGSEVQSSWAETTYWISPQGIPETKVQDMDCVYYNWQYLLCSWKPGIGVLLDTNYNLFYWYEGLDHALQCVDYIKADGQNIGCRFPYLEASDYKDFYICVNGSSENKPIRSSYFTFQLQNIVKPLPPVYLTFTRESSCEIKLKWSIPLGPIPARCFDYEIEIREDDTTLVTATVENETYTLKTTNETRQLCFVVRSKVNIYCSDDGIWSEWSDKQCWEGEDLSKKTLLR

T2: human IL13Rα2 on cells (human, UniProt Q14627 27-380)
T2 construct: whole, on cells; also called hIL13Rα2
T2 sequence (looked up): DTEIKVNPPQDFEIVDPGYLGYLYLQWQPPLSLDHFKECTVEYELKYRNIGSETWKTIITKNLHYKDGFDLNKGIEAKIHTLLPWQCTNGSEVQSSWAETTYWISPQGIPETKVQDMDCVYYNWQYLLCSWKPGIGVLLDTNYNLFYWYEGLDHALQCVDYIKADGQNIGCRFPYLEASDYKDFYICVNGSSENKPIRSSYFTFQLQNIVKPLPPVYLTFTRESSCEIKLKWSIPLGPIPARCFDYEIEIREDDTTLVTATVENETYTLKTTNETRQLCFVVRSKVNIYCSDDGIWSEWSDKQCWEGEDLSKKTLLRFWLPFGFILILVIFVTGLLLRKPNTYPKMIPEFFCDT

T3: Human MUC16 polypeptide (MUC16 ectodomain peptide) (human)
T3 construct: Analyte of the Octet titration and antigen of the binning assay; also called MUC16 peptide; MUC16^ecto peptide
T3 peptide: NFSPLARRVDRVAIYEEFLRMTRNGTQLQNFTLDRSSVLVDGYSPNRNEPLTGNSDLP


How the values were obtained:
[1] = target: T1, recombinant human IL13Rα2 fused to an …; assay: Octet KD relative to clone 1 parental
Protocol: (§1) Two clones were chosen for humanization. […] Each humanized nanobody was analyzed by Octet at 500 nM on an Ni-NTA sensor, with three fold dilutions of antigen (IL13Rα2-Fc) at 125 nM, 41.66 nM, and 13.86 nM. A summary of the octed measurements for each of the humanized variants depicted in FIG. 1 is shown in Table 1 (clone 1) and Table 2 (clone 2).

[2] = target: T1, recombinant human IL13Rα2 fused to an …; assay: Octet (BLI); nanobody on Ni-NTA sensor, IL13Rα2-Fc in solution
Protocol: as §1

[3] = target: T2, human IL13Rα2 on cells; assay: flow cytometry; cell line not stated
[4] = target: T3, Human MUC16 polypeptide (MUC16 …); assay: Octet (BLI), NTA biosensor; His-tagged sdAb on sensor, MUC16 peptide titrated; 1:1 global fit
Protocol: FIGS. 5A-C show titration and measurement of binding affinity of parental (llama) and humanized anti-MUC16 single chain antibody (VHH). FIG. 5A is a diagram illustrating the experimental procedure by which the VHH binders produced in Example 5 are screened using an NTA biosensor (nickel coated surface). The His-tagged MUC16 sdAbs (3.25 μg/ml) are bound to the biosensor, and the MUC16 peptide is added at concentrations of 0, 1.56, 6.25, 25, 50, 100 or 200 nM. Buffer: 1× Octet; 1× Corning® Cellgro® PBS (cat. 21-040-CM) containing 0.02% Tween® 20 at 30° C. Sensors: Pall Forte Bio Dip & Read (cat. 18-5102). FIG. 5B (clone R3Mu4 parental and humanized variants) and FIG. 5C (clone R3Mu29 parental and humanized variants) show binding kinetics of the sdAbs to the MUC16 target (see also Table 1). These curves were used to derive binding affinity constant for each protein and to assess the effect of humanization on antigen binding.
The VHH binders produced in Example 5 are screened using an NTA biosensor (nickel column, see FIG. 5A for a drawing outlining the method). The His-tagged MUC16 sdAbs (3.25 μg/ml) are bound to the column, and then the MUC16 peptide is passed through the column at concentrations of 200, 100, 50, 25, 6.25, 1.56, and 0 nM. Buffer: 1× Corning® Cellgro® PBS pH 7.4 (cat. 21-040-CM) containing 0.02% Tween® 20) at 30° C. Sensors: Pall Forte Bio Dip & Read (cat. 18-5102).

[5] = target: T2, human IL13Rα2 on cells; assay: flow cytometry; cell line not stated; remark: listed apart in the source
[6] = target: T1, recombinant human IL13Rα2 fused to an …; assay: Octet KD relative to clone 2 parental
Protocol: as §1

KD fold difference [1]	Kd [2]	Flow Cytometry MFI [3]	Kd [4]	Flow Cytometry MFI [5]	KD fold difference [6]	Binder
1 fold	0.63 nM	2270 MFI				Llama single domain anti-IL13Rα2 Clone 1 (LSD1) (VHH, Captured on a Ni-NTA sensor in the Octet assay, so a His tag is implied; the tag is not described for this construct; also called parental; clone 1 parental) VHH: DVQLVESGGGLVQPGGSLRLSCAASGFTSDYYIIGWFRQAPGKEREGVSCISSKYANTNYADSVKGRFTQSRGAAKNTVYLQMNALKPEDTAVYYCAADTRRYTCPDIATMHRNFDSWGQGTQVTVSS
			36.2 nM			R3MU4h13 (98.9% human) (VHH, not shown: His tag (His-tagged MUC16 sdAbs)) VHH: EVQLVESGGGLVQPGGSLRLSCAASGRTVSSLFMGWVRQAPGKGLEWVSAISRYSLYTYYADSVKGRFTISRDNAKNTLYLQMNSLRPEDTAVYYCASKLEYTSNDYDSWGQGTLVTVSS
			22.9 nM			R3MU29h15 (98.9% human) (VHH, also called R3Mu29_h15#16; not shown: His tag (His-tagged MUC16 sdAbs)) VHH: EVQLVESGGGLVQPGGSLRLSCAASGRAVSSLFMGWVRQAPGKGLEWVSAISRYSLYTYYADSVKGRFTISRDNAKNTLYLQMNSLRPEDTAVYYCASKLEYTSNDYDSWGQGTLVTVSS
			36.4 nM			R3MU29h14 (97.8% human) (VHH, also called R3Mu29_h14#13; not shown: His tag (His-tagged MUC16 sdAbs)) VHH: EVQLVESGGGLVQPGGSLRLSCAASGRAVSSLFMGWFRQAPGKGLEWVSAISRYSLYTYYADSVKGRFTISRDNAKNTLYLQMNSLRPEDTAVYYCASKLEYTSNDYDSWGQGTLVTVSS
	810 nM			3650 MFI	1 fold	Llama single domain anti-IL13Rα2 Clone 2 (LSD2) (VHH, Captured on a Ni-NTA sensor, so a His tag is implied; the tag is not described; also called 2-parental; clone 2 parental) VHH: DVQLVESGGGLVQPGGSLRLSCEASGFASDDYIIGWFRQAPGKEREGVSCISSRYANTVYTDSVKGRFRISRGTAKNTVYLQMSALKPEDTAVYYCAMDSRRVTCPEISTMHRNFDSWGQGTQVTVSS
	910 nM			3070 MFI	1.1 fold	anti-IL13Rα2 Clone 2 humanized variant 2-h3 (VHH) VHH: EVQLVESGGGLVQPGGSLRLSCAASGFASDDYIMGWFRQAPGKGLEGVSCISSRYANTVYADSVKGRFTISRGNAKNTVYLQMSSLRPEDTAVYYCAMDSRRVTCPEISTMHRNFDSWGQGTQVTVSS
	870 nM			1450 MFI	1.1 fold	anti-IL13Rα2 Clone 2 humanized variant 2-h5 (VHH) VHH: EVQLVESGGGLVQPGGSLRLSCAASGFASDDYIMGWFRQAPGKGLEGVSCISSRYANTVYADSVKGRFTISRDNAKNTVYLQMNSLRPEDTAVYYCAMDSRRVTCPEISTMHRNFDSWGQGTQVTVSS
	960 nM			3060 MFI	1.2 fold	anti-IL13Rα2 Clone 2 humanized variant 2-h4 (VHH) VHH: EVQLVESGGGLVQPGGSLRLSCAASGFASDDYIMGWFRQAPGKGLEGVSCISSRYANTVYADSVKGRFTISRGNAKNTVYLQMNSLRPEDTAVYYCAMDSRRVTCPEISTMHRNFDSWGQGTQVTVSS
	930 nM				1.1 fold	anti-IL13Rα2 Clone 2 humanized variant 2-h1 (VHH) VHH: EVQLVESGGGLVQPGGSLRLSCAASGFASDDYIMGWFRQAPGKGLEGVSCISSRYANTVYADSVKGRFRISRGNAKNTVYLQMSALRPEDTAVYYCAMDSRRVTCPEISTMHRNFDSWGQGTQVTVSS
	1130 nM			2870 MFI	1.4 fold	anti-IL13Rα2 Clone 2 humanized variant 2-h6 (VHH) VHH: EVQLVESGGGLVQPGGSLRLSCAASGFASDDYIMGWFRQAPGKGLEGVSCISSRYANTVYADSVKGRFTISRDNAKNTLYLQMNSLRPEDTAVYYCAMDSRRVTCPEISTMHRNFDSWGQGTQVTVSS
	950 nM			2020 MFI	1.2 fold	Humanized Llama Single domain anti-IL13Rα2 Clone 2-h8 (H1-LSD2) (VHH, Captured on a Ni-NTA sensor, so a His tag is implied; the tag is not described) VHH: EVQLVESGGGLVQPGGSLRLSCAASGFASDDYIMGWFRQAPGKGLEGVSCISSRYANTYYADSVKGRFTISRDNAKNTLYLQMNSLRPEDTAVYYCAMDSRRVTCPEISTMHRNFDSWGQGTLVTVSS
2.3 fold	1.46 nM	639 MFI				Humanized Llama single domain anti-IL13Rα2 Clone 1-h10 (H2-LSD1) (VHH, Captured on a Ni-NTA sensor, so a His tag is implied; the tag is not described) VHH: EVQLVESGGGLVQPGGSLRLSCAASGFTSDYYIMGWVRQAPGKGLEWVSCISSKYANTYYADSVKGRFTISRDNAKNTLYLQMNSLRPEDTAVYYCAADTRRYTCPDIATMHRNFDSWGQGTLVTVSS
	3310 nM			1120 MFI	4.1 fold	Humanized Llama single domain anti-IL13Rα2 Clone 2-h10 (H2-LSD2) (VHH, Captured on a Ni-NTA sensor, so a His tag is implied; the tag is not described) VHH: EVQLVESGGGLVQPGGSLRLSCAASGFASDDYIMGWVRQAPGKGLEWVSCISSRYANTYYADSVKGRFTISRDNAKNTLYLQMNSLRPEDTAVYYCAMDSRRVTCPEISTMHRNFDSWGQGTLVTVSS
3.1 fold	1.94 nM	1240 MFI				Humanized Llama Single domain anti-IL13Rα2 Clone 1-h8 (H1-LSD1) (VHH, Captured on a Ni-NTA sensor, so a His tag is implied; the tag is not described) VHH: EVQLVESGGGLVQPGGSLRLSCAASGFTSDYYIMGWFRQAPGKGLEGVSCISSKYANTYYADSVKGRFTISRDNAKNTLYLQMNSLRPEDTAVYYCAADTRRYTCPDIATMHRNFDSWGQGTLVTVSS
3 fold	1.91 nM	842 MFI				anti-IL13Rα2 Clone 1 humanized variant 1-h9 (VHH) VHH: EVQLVESGGGLVQPGGSLRLSCAASGFTSDYYIMGWFRQAPGKGLEWVSCISSKYANTYYADSVKGRFTISRDNAKNTLYLQMNSLRPEDTAVYYCAADTRRYTCPDIATMHRNFDSWGQGTLVTVSS
			10.2 nM			single domain anti-MUC16 binder R3MU4 (VHH, also called Parental R3Mu4; parental (llama) R3Mu4; not shown: C-terminal tags (pMECS GG: HA tag and His6 tag; His-tagged in the Octet assay)) VHH: QVQLQESGGGLVQAGGSLRLSCAASGRTVSSLFMGWFRQAPGKERELVAAISRYSLYTYYADSVKGRFTISADNAKNAVYLQMNSLKPEDTAVYYCASKLEYTSNDYDSWGQGTQVTVSS
			10.9 nM			R3MU4h11 (96.7% human) (VHH, also called R3Mu4 h11#2; not shown: His tag (His-tagged MUC16 sdAbs)) VHH: EVQLVESGGGLVQPGGSLRLSCAASGRTVSSLFMGWFRQAPGKGLELVSAISRYSLYTYYADSVKGRFTISRDNAKNTLYLQMNSLRPEDTAVYYCASKLEYTSNDYDSWGQGTLVTVSS
			8.3 nM			R3MU29h13 (96.7% human) (VHH, also called R3Mu29_h13#11; not shown: His tag (His-tagged MUC16 sdAbs)) VHH: EVQLVESGGGLVQPGGSLRLSCAASGRAVSSLFMGWFRQAPGKGLELVSAISRYSLYTYYADSVKGRFTISRDNAKNTLYLQMNSLRPEDTAVYYCASKLEYTSNDYDSWGQGTLVTVSS
			94.6 nM			R3MU4h12 (97.8% human) (VHH, also called R3Mu4 h12#2; not shown: His tag (His-tagged MUC16 sdAbs)) VHH: EVQLVESGGGLVQPGGSLRLSCAASGRTVSSLFMGWFRQAPGKGLEWVSAISRYSLYTYYADSVKGRFTISRDNAKNTLYLQMNSLRPEDTAVYYCASKLEYTSNDYDSWGQGTLVTVSS
			6.3 nM			Single domain anti-MUC16 R3MU29 (VHH, also called Parental R3Mu29; parental (llama) R3Mu29; not shown: C-terminal tags (pMECS GG: HA tag and His6 tag; His-tagged in the Octet assay)) VHH: QVQLQESGGGLVQAGDSLRLSCAASGRAVSSLFMGWFRRAPGKERELVAAISRYSLYTYYADSVKGRFTISADNAKNAVYLQMNSLKPEDTAVYYCASKLEYTSNDYDSWGQGTQVTVSS
